In IntAct's records for PubMed 24338975:

B1: G-rich sequence factor 1 (Homo sapiens), Q12849 (parent)
chain: MAGTRWVLGALLRGCGCNCSSCRRTGAACLPFYSAAGSIPSGVSGRRRLLLLLGAAAAAASQTRGLQTGPVPPGRLAGPPAVATSAAAAAAASYSALRASLLPQSLAAAAAVPTRSYSQESKTTYLEDLPPPPEYELAPSKLEEEVDDVFLIRAQGLPWSCTMEDVLNFFSDCRIRNGENGIHFLLNRDGKRRGDALIEMESEQDVQKALEKHRMYMGQRYVEVYEINNEDVDALMKSLQVKSSPVVNDGVVRLRGLPYSCNEKDIVDFFAGLNIVDITFVMDYRGRRKTGEAYVQFEEPEMANQALLKHREEIGNRYIEIFPSRRNEVRTHVGSYKGKKIASFPTAKYITEPEMVFEEHEVNEDIQPMTAFESEKEIELPKEVPEKLPEAADFGTTSSLHFVHMRGLPFQANAQDIINFFAPLKPVRITMEYSSSGKATGEADVHFETHEDAVAAMLKDRSHVHHRYIELFLNSCPKGK

Variants of: B1
Conditions: with psd10_human PSMD10, O75832
Chain of psd10_human PSMD10, O75832 (O75832 whole entry): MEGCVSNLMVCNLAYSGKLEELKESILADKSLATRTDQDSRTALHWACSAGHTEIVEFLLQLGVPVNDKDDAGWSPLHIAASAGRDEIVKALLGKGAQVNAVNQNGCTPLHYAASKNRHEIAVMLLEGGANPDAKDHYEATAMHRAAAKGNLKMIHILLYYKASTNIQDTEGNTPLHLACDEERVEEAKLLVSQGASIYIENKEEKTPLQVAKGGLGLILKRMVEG

| Variant | effect of a mutation on the interaction |
| --- | --- |
| E144A;E145A;D147A | disrupting interaction strength |
